We go through one sequence from US9522198B2, “Methods and compositions related to targeting tumors and wounds” (Sanford-Burnham Medical Research Institute, priority 2006, dated 2016).

In data set [1] the test system is human umbilical venous endothelial cells (HUVECs). The format is cell-based. From the text: (§1) CLT1 contains a sequence of three consecutive hydrophobic residues, LII (leucine-isoleucine-isoleucine). This motif is very similar to the VII sequence (V, valine) which causes proteins to form large insoluble aggregates (Esteras-Chopo et al. 2005). […] The ability of CLT1 to aggregate proteins correlates with its cytotoxicity for human umbilical venous endothelial cells (HUVECs).

The target of a further data set is T1, fibrinogen (Homo sapiens, UniProt P02671+P02675+P02679).
T1 sequence (P02671 20-629 limits assumed): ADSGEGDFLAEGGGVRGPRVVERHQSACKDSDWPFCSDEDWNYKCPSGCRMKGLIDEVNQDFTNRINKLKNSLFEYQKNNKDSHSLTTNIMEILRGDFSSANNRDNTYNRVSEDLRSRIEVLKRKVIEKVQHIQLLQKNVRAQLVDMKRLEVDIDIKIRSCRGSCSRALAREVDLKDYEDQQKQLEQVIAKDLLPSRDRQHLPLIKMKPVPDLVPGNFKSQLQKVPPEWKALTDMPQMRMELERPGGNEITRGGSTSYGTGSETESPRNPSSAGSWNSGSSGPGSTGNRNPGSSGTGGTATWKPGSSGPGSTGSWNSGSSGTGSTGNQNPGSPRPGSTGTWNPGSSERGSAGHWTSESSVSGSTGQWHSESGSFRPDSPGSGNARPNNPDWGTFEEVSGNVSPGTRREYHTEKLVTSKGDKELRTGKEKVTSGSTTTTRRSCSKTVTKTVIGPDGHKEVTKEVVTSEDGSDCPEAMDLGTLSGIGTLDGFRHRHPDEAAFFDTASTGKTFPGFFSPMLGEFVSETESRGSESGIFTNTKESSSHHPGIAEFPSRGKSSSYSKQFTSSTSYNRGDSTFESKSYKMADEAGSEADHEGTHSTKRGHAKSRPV
T1 sequence (P02675 31-491): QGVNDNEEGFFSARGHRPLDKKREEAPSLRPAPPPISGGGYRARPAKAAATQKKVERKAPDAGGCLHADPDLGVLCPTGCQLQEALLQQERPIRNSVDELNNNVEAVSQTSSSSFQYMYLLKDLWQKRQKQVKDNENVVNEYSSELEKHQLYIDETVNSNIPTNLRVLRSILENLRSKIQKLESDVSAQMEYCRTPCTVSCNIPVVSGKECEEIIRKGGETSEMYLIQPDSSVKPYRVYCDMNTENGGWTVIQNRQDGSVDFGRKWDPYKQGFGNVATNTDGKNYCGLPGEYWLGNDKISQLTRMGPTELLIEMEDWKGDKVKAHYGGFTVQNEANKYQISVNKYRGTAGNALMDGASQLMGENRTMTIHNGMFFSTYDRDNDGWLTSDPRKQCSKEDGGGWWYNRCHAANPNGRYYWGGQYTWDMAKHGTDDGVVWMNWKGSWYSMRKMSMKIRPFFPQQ
T1 sequence (P02679 27-453): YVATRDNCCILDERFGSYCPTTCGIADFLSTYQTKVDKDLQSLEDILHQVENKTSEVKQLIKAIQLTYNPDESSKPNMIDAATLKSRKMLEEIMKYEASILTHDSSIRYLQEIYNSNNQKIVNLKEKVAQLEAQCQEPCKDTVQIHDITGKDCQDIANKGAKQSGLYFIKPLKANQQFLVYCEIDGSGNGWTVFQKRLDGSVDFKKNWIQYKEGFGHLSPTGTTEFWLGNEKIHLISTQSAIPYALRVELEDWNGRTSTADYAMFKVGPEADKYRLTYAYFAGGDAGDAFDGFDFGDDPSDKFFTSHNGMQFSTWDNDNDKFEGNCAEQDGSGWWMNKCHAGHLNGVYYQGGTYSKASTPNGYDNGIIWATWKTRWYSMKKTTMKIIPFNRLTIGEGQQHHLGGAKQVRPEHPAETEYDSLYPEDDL
The data set can be described thus: Aggregate formation with plasma proteins, light scattering at 600 nm (turbidity). The format is biochemical.
Source text: as §1

Like-named read-outs stand apart in the source and are kept apart here. Ends that are not written are not given here.

On to “CGLIIQKNEC (also: cyclic, ring type not given here, fluorescein conjugate, site not given here) [CLT1, cyclic decapeptide from phage library screened on plasma clots; tested as fluorescein conjugate]”, for which, in data set [1] (HUVECs), the “cytotoxicity for endothelial cells” value is on record as “cytotoxic for endothelial cells”. For the same sequence, the cell death result is reported as “not in confluent HUVECs” in data set [1] (confluent HUVECs, 150 μg/ml) and “induced cell death” in data set [1] (proliferating HUVECs, 150 μg/ml in culture media, within 24 h). Moreover, the “aggregate formation with fibrinogen” value in the data set with fibrinogen is recorded as “form aggregates”.
